From the supplement of paper PMC9112550, “Optimization of the antimicrobial peptide Bac7 by deep mutational scanning” (BMC Biology, 2022) come the findings set out here.

The subject of the data set is Escherichia coli TOP10. Description: shrunken log2 fold change of peptide-encoding DNA abundance (4.5 h post-induction vs induction); higher = less antimicrobial activity (less host growth inhibition). As to conditions: time post-induction: 4.5 h; library: site-saturation at positions 5, 18, 19, 20.
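Note: peptides expressed intracellularly from a pBAD plasmid library in pooled LB shake-flask culture, induced with 0.3% L-arabinose, DNA abundance read by NGS, three biological replicates, DESeq2 with apeglm shrinkage.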

In the case of RRIRFRPPRLPRPRPRPVKFPRP, the “shrunken log2 fold change” value was -0.0322.
As to RRIRRRPPRLPRPRPRPTDQPRP, the “shrunken log2 fold change” value came to 0.552.
Under RRIRDRPPRLPRPRPRPEKIPRP stands 0.652; under RRIRTRPPRLPRPRPRPNYQPRP, -0.362.
In the case of RRIRHRPPRLPRPRPRPKLSPRP, the “shrunken log2 fold change” value came to 0.0757.
Under RRIRTRPPRLPRPRPRPRTWPRP stands -0.0887.
Turning to RRIRIRPPRLPRPRPRPLSQPRP, the “shrunken log2 fold change” value was -0.111.
With RRIRVRPPRLPRPRPRPNGVPRP the figure was -0.154; with RRIRPRPPRLPRPRPRPYNNPRP, -1.25; with RRIRHRPPRLPRPRPRPCQVPRP, -0.345.
Under RRIRGRPPRLPRPRPRPEQAPRP stands 1.83.
With RRIRERPPRLPRPRPRPCKPPRP the figure was 0.0172.
With RRIRIRPPRLPRPRPRPAHKPRP, the “shrunken log2 fold change” value turned out to be 0.0491.
Take RRIRCRPPRLPRPRPRPYHWPRP: the “shrunken log2 fold change” value was -1.09.
With RRIRIRPPRLPRPRPRPTNVPRP the figure was -0.174; with RRIRTRPPRLPRPRPRPKDRPRP, -0.196; with RRIRTRPPRLPRPRPRPHKGPRP, 0.0731.
With RRIRGRPPRLPRPRPRPYYVPRP the figure was -0.0871; with RRIRCRPPRLPRPRPRPTCKPRP, -0.184.
For the sequence RRIRRRPPRLPRPRPRPISVPRP, the “shrunken log2 fold change” value was -0.115.
For the sequence RRIRIRPPRLPRPRPRPICQPRP, the “shrunken log2 fold change” value is -0.418.
Under RRIRKRPPRLPRPRPRPKQGPRP stands 0.121.
With RRIRYRPPRLPRPRPRPTVYPRP the figure was -0.686; with RRIRYRPPRLPRPRPRPRSCPRP, -0.434; with RRIRMRPPRLPRPRPRPDRPPRP, 0.107.
Under RRIRHRPPRLPRPRPRPLTPPRP stands -0.119; under RRIRDRPPRLPRPRPRPETGPRP, -0.0106.
Consider RRIRCRPPRLPRPRPRPGKAPRP, for which the “shrunken log2 fold change” value turned out to be 0.00811.
With RRIRDRPPRLPRPRPRPTITPRP the figure was 0.0537.
With RRIRARPPRLPRPRPRPHETPRP the figure was 0.062; with RRIRCRPPRLPRPRPRPKFCPRP, -0.0358; with RRIRPRPPRLPRPRPRPGWLPRP, 0.468.
Under RRIRMRPPRLPRPRPRPFVPPRP stands -0.375; under RRIRGRPPRLPRPRPRPKYLPRP, 0.32.
Turning to RRIRRRPPRLPRPRPRPWSVPRP, the “shrunken log2 fold change” value turned out to be 0.0267.
With RRIRPRPPRLPRPRPRPDMMPRP the figure was -0.0321; with RRIRFRPPRLPRPRPRPGSLPRP, -0.479.
Under RRIRRRPPRLPRPRPRPHVMPRP stands 1.55; under RRIRVRPPRLPRPRPRPYDTPRP, 1.6; under RRIRCRPPRLPRPRPRPTQGPRP, 0.954.
With RRIRCRPPRLPRPRPRPHMMPRP the figure was -1.12; with RRIRHRPPRLPRPRPRPKTDPRP, -0.434; with RRIRGRPPRLPRPRPRPSIQPRP, 0.176.
RRIRFRPPRLPRPRPRPNGSPRP: the “shrunken log2 fold change” value stood at 0.0396.
With RRIRCRPPRLPRPRPRPRQCPRP the figure was 0.0586.
Under RRIRFRPPRLPRPRPRPAYNPRP stands -0.486.
Under RRIRFRPPRLPRPRPRPDALPRP stands -0.0978; under RRIRLRPPRLPRPRPRPMCIPRP, -0.125.
Turning to RRIRHRPPRLPRPRPRPGERPRP, the “shrunken log2 fold change” value is -0.134.
With RRIRYRPPRLPRPRPRPHMIPRP the figure was -0.734; with RRIRYRPPRLPRPRPRPMKVPRP, 0.0135.
Under RRIRERPPRLPRPRPRPTCGPRP stands 0.497; under RRIRFRPPRLPRPRPRPGFPPRP, 0.098.
With RRIRPRPPRLPRPRPRPGLQPRP the figure was -0.0954; with RRIRCRPPRLPRPRPRPCTQPRP, -0.887.
Take RRIRWRPPRLPRPRPRPFAYPRP: the “shrunken log2 fold change” value is -0.304.
With RRIRKRPPRLPRPRPRPCRQPRP the figure was -0.166; with RRIRERPPRLPRPRPRPQHAPRP, -0.107.
Under RRIRRRPPRLPRPRPRPDITPRP stands 0.303; under RRIRPRPPRLPRPRPRPYEAPRP, -0.282; under RRIRLRPPRLPRPRPRPKQPPRP, 0.119.
Consider RRIRQRPPRLPRPRPRPSYWPRP, for which the “shrunken log2 fold change” value was -0.0858.
With RRIRQRPPRLPRPRPRPASIPRP the figure was -0.0578; with RRIRQRPPRLPRPRPRPSRYPRP, -0.00452.
With RRIRCRPPRLPRPRPRPEENPRP the figure was 0.602.
Under RRIRWRPPRLPRPRPRPQLNPRP stands 0.679; under RRIRNRPPRLPRPRPRPTWVPRP, 0.0257.
Regarding RRIRKRPPRLPRPRPRPDPDPRP, the “shrunken log2 fold change” value was 0.431.
Regarding RRIRPRPPRLPRPRPRPKVNPRP, the “shrunken log2 fold change” value was -0.148.
With RRIRKRPPRLPRPRPRPDCTPRP the figure was 1.22.
With RRIRLRPPRLPRPRPRPRPMPRP the figure was 0.725.
On to RRIRMRPPRLPRPRPRPQHAPRP, for which the “shrunken log2 fold change” value was 0.0286.
With RRIRQRPPRLPRPRPRPTLYPRP the figure was -0.0318; with RRIRKRPPRLPRPRPRPCHNPRP, -0.111.
As for RRIRTRPPRLPRPRPRPGSMPRP, the “shrunken log2 fold change” value is -0.199.
Under RRIRTRPPRLPRPRPRPAWGPRP stands 0.142.
As to RRIRLRPPRLPRPRPRPYEEPRP, the “shrunken log2 fold change” value is -0.274.
Under RRIRIRPPRLPRPRPRPSKRPRP stands -0.622.
With RRIRWRPPRLPRPRPRPWSFPRP the figure was -0.0355; with RRIRKRPPRLPRPRPRPDSLPRP, 0.00855.
Under RRIRGRPPRLPRPRPRPTMRPRP stands 1.44; under RRIRNRPPRLPRPRPRPSVHPRP, -0.311.
Take RRIRKRPPRLPRPRPRPMKCPRP: the “shrunken log2 fold change” value is 0.0794.
Under RRIRYRPPRLPRPRPRPGKPPRP stands -0.0225.
In the case of RRIRTRPPRLPRPRPRPNMNPRP, the “shrunken log2 fold change” value was -0.864.
Under RRIRQRPPRLPRPRPRPTMCPRP stands -0.0814.
RRIRARPPRLPRPRPRPSGIPRP: the “shrunken log2 fold change” value was 0.0311.
Under RRIRVRPPRLPRPRPRPNTHPRP stands -0.457.
Under RRIRARPPRLPRPRPRPMWLPRP stands 0.0028.
Under RRIRIRPPRLPRPRPRPHYSPRP stands -1.15; under RRIRVRPPRLPRPRPRPLFMPRP, -0.663.
RRIRWRPPRLPRPRPRPNVPPRP: the “shrunken log2 fold change” value is -0.144.
Under RRIRLRPPRLPRPRPRPELSPRP stands -0.113; under RRIRGRPPRLPRPRPRPFHYPRP, -0.383; under RRIRKRPPRLPRPRPRPFAQPRP, 0.177.
Under RRIRKRPPRLPRPRPRPWIVPRP stands -0.056.
With RRIRCRPPRLPRPRPRPRYDPRP the figure was -0.596; with RRIRDRPPRLPRPRPRPWWAPRP, 0.61; with RRIRPRPPRLPRPRPRPAPAPRP, 0.425.
RRIRTRPPRLPRPRPRPQKHPRP: the “shrunken log2 fold change” value is -0.459.
Under RRIRVRPPRLPRPRPRPYLMPRP stands -0.587.
RRIRLRPPRLPRPRPRPVAVPRP: the “shrunken log2 fold change” value is 0.0513.
With RRIRIRPPRLPRPRPRPKSPPRP the figure was -0.0939; with RRIRERPPRLPRPRPRPLQWPRP, 0.499; with RRIRDRPPRLPRPRPRPLNLPRP, -0.324.
Under RRIRRRPPRLPRPRPRPIEEPRP stands 0.0745.
With RRIRTRPPRLPRPRPRPSHDPRP the figure was -0.459; with RRIRGRPPRLPRPRPRPWLRPRP, 0.306.
Regarding RRIRYRPPRLPRPRPRPILSPRP, the “shrunken log2 fold change” value is -0.107.
With RRIRYRPPRLPRPRPRPWYGPRP the figure was -0.258; with RRIRTRPPRLPRPRPRPVPPPRP, 0.396.
With RRIRLRPPRLPRPRPRPDQKPRP the figure was 0.0416.
As for RRIRGRPPRLPRPRPRPHHLPRP, the “shrunken log2 fold change” value stood at 0.374.
Under RRIRVRPPRLPRPRPRPEGMPRP stands 0.326; under RRIRYRPPRLPRPRPRPILWPRP, -0.0119; under RRIRMRPPRLPRPRPRPKYKPRP, -0.0345.
With RRIRHRPPRLPRPRPRPGTYPRP the figure was -0.0156; with RRIRWRPPRLPRPRPRPPTFPRP, -0.0697.
With RRIRWRPPRLPRPRPRPDVAPRP the figure was 1.3; with RRIRARPPRLPRPRPRPLHTPRP, 0.0174; with RRIRNRPPRLPRPRPRPHKMPRP, -0.634.
In the case of RRIRKRPPRLPRPRPRPDQYPRP, the “shrunken log2 fold change” value was 0.0833.
As for RRIRHRPPRLPRPRPRPQVDPRP, the “shrunken log2 fold change” value was -0.0221.
With RRIRCRPPRLPRPRPRPCVPPRP the figure was -0.49; with RRIRIRPPRLPRPRPRPQNQPRP, -1.03.
